According to article PMC3031671:

Molecular target: Fibronectin (FN) purified from human plasma (human)
Assay: ELISA

Substance	Kd
Isolated recombinant hemopexin-like carboxyl-terminal domain of MMP-2 (PEX) (from UniProt P08253 446-660) (domain or fragment)	0.1 µM
Full-length MMP-2^E404A (catalytically inactive, ligand-binding matrix metalloproteinase-2) (from UniProt P08253 30-660) (enzyme)	0.02 µM
